The target in test [1] is HAdV-B35 capsid (replication-defective, E1-deleted vector particle with a YFP expression cassette) (human adenovirus B35). Description: SPR; BIAcore 3000; HAdV particles amine-coupled to a CM5 chip (3,500-4,000 RU, diluted in acetate buffer pH 4); lactoferrin 6.25-200 nM injected at 30 µl/min, 180 s association, 600 s dissociation; HBS-EP buffer (10 mM HEPES, 150 mM NaCl, 3 mM EDTA, 0.005% polysorbate 20, pH 7.4); bivalent fitting model. (In general: SPR reads the build-up and loss of mass on a sensor chip optically.)

Test [2] concerns the target HAdV-C5 capsid (replication-defective, E1-deleted vector particle with a GFP expression cassette) (human adenovirus C5) (UniProt P04133). The test is described as above.

Consider human lactoferrin (natural protein), for which the Kd in test [1] turned out to be 54 µM; in test [2] it was 0.8 µM.

The values above are taken from article PMC8173049.
